One assay has as its target T1, anti-PD-1 Nb C12-Fc (Bactrian camel).
T1 construct: VHH C12 selected from a naive Bactrian camel phage display library; Nb C12 fused to the human IgG1 Fc fragment in plasmid pCZN1; about 40 kDa on SDS-PAGE; also called anti-PD-1 Nb-Fc; PD-1 C12 Nb-Fc
The assay is described as follows: ELISA; plates coated with human PD-1 or mouse PD-1 protein at 2 ug/ml overnight; serial diluted anti-PD-1 Nb-Fc added, 37 C, 1 h; HRP-conjugated antihuman IgG. The conditions noted are these: both partners purified. Background: In an ELISA, binding on a coated surface is turned into a signal by an enzyme label.

The target in assay [1] is T2, human PD-1 protein (Acro biosystems) (Homo sapiens (Human)., UniProt Q15116).
T2 construct: programmed death protein 1 (PD-1), human, recombinant protein; probably the extracellular domain; also called human PD-1 antigen; hPD-1; source: bought: Acro biosystems
T2 sequence (Q15116 25-170): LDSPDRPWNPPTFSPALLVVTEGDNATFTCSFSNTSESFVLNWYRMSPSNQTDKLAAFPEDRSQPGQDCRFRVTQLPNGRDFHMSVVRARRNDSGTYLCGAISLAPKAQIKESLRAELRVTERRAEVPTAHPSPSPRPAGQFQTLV
The assay is described as follows: ELISA; Phage-ELISA; wells coated with human PD-1 protein; supernatant of the colonies added for 1 h; anti-M13/HRP (1:5000); positive if absorbance more than two times the negative control (PBS). The conditions noted are these: one partner purified.

This is an account of results in PMC9867944 (Bioscience Reports, 2023).

B1: mouse PD-1 protein (receptor, UniProt Q02242 25-288, looked up)
chain: LEVPNGPWRSLTFYPAWLTVSEGANATFTCSLSNWSEDLMLNWNRLSPSNQTEKQAAFCNGLSQPVQDARFQIIQLPNRHDFHMNILDTRRNDSGIYLCGAISLHPKAKIEESPGAELVVTERILETSTRYPSPSPKPEGRFQGM
notes: programmed death protein 1 (PD-1), mouse, protein coated on plates; also called mouse PD-1 antigen
Take B1: the binding result in the assay with anti-PD-1 Nb C12-Fc is “no binding”.

B2: anti-PD-1 Nb C11, displayed on phage (VHH)
VHH: QVQLQESGGAWCEPGGSLTLPCAVSGFAVDRDAVSWVRKAPGQGLQWVSTTTPDGTNYYGALAKDRFTVTRDTTRNTLQLQLTKLRIEDTAKYHCVQDYCSTGRCSLRTQGTQVTVSS
notes: VHH C11 selected from a naive Bactrian camel phage display library; Detected with anti-M13/HRP; C11 was never made as an Fc fusion (ligation to pCZN1 failed); also called C11 Nb; source: E. coli TG1, phage in the supernatant of the colonies
Turning to B2, the binding result in assay [1] was “binds”.

B3: anti-PD-1 Nb C12, displayed on phage (VHH)
VHH: QVQLQELGETRCRHGGSLRLSCKVSGYTQRSYCLGWLRQAPGNEREAVAVLQHSGNFRHYADSVQGRFVISQDYTDNTVYLAMNNLKSEDAAMYYCAAVGLRVSQFNYWGQGTQVTVSS
notes: VHH C12 selected from a naive Bactrian camel phage display library; same VHH as in m1; Detected with anti-M13/HRP; also called C12 Nb; source: E. coli TG1, phage in the supernatant of the colonies
Take B3: the binding result in assay [1] was “binds”.
